Source: US8846873B2, “Antibodies directed to GPNMB and uses thereof” (Celldex Therapeutics, Inc., priority 2004, dated 2014)
“Also recorded” adds a separate entry of the source.

Legend:
[1] = test system: CG56972-expressing cancer cell lines; assay: Growth of CG56972-expressing cancer cell lines with naked CR011 or CR011 plus saporin-conjugated secondary antibody; format: cell-based; details: for effect on CG56972 expressing cells / growth, naked antibody: used directly
Excerpt: Fully human monoclonal antibodies (mAb)-IgG2 to CG56972/GPNMB, an antigen predominantly found on the surface of melanoma and brain tumor cells, were generated. The naked CR0111gG2 mAb (mAb 1.15) had no effect on CG56972 expressing cells either in vitro or in vivo. Thus we examined whether isotype switching from an IgG2 to an IgG1 might enable the mAb to kill human melanoma cells through ADCC effector functions.

[2] = test system: CG56972-expressing cells; assay: Internalization of cell surface bound antibodies (flow cytometry); format: cell-based; details: incubation with CG56972-expressing cells
Experimental: Internalization of cell surface bound antibodies was assessed by a modified flow cytometry procedure. […] After washing cells, incubation was shifted to 37° C. for 1 hr to allow internalization of bound antibodies. Cells that remained on ice (total surface bound) or that were incubated at 37° C. […] Labeled cells were analyzed by flow cytometry as described above. The percentage of antibody internalized was determined using the GMRs and the following formula: Percent internalized=Total surface bound (4° C.)−Total surface bound (37° C.)/Total surface bound (4° C.)×100

[3] = test system: SK-Mel-2 cells; assay: Flow cytometry of CR011 binding to cell surface CG56972/GPNMB; set-up: species or system human; details: SK-MEL-2, positive control
Experimental: (§1) Flow Cytometry: Quantitative analysis of GPNMB expression on the cell surface of cell lines was determined by flow cytometry. […] Cells were fixed in 1% paraformaldehyde/PBS and examined on a Becton Dickinson FACSCalibur flow cytometer. Data analysis was performed with Becton Dickinson Cell Quest software version 3.3 and the geometric mean fluorescence intensity ratio (GMR) was determined for each cell type.
as §1, with “CG56972” for “GPNMB”, “the” for “the cell”, “cytometry (FACS).” for “cytometry.”

[4] = test system: lymphoma or leukemia cell lines; assay: Clonogenic assay with 1.15.1-AE (methylcellulose); format: cell-based; details: various concentrations
Experimental: Lymphoma or leukemia cell lines were mixed with methylcellulose base media (R&D Systems, USA) and in various concentrations of unconjugated and Auristatin E-conjugated 1.15.1 antibody before plating onto 6-well tissue culture plates (Becton Dickinson, Franklin Lakes, N.J., USA). […] Plates were incubated at 37° C. and examined daily. On days 14-18, colonies on the plates were counted.

[5] = test system: SK-Mel-2 cells; assay: ADCC assay with human PBMC (DELFIA EuTDA cytotoxicity); format: cell-based; details: human PBMC 30 to 100 fold; 2, 5, 10 μg/200 μl; listed as CR011 IgG2
Experimental: We next examined whether the CR0111gG1 mAb could induce ADCC in SK-MEL-2 cells in culture in the presence of human PBMC. Human PBMC were isolated from whole blood using a Ficoll-Plaque. Briefly, in a 50 mL tube, 15 mL of PBS was added to 20 mL of whole blood which was underlayed with 10 mL Ficoll-Plaque and the tube was centrifuged at 2000 RPM. Mononuclear cells were collected from the interface and washed 3 times with PBS. The ADCC assay was carried out in a 96 well plate using a fluorescence assay for cytolysis from Perkin-Elmer (DELFIA EuTDA Cytotoxic assay). The procedure is based on loading target cells with a fluorescence enhancing ligand (BATDA, bis (acetoxymethyl) terpyridine—dicarboxylate). The hydrophic ligand penetrates the membrane quickly. Within the cell the esterbonds are hydrolyzed to form a hydrophilic ligand (TDA, terpyridine—dicarboxylic acid) which can no longer pass through the membrane. After cytolysis the ligand is released and introduced to the Europium solution. The europium and the ligand form a highly fluorescent and stable chelate (EuTDA). Fluorescence intensity are recorded using excitation and emission wavelengths as λex=340 nm and λem=613 nm, respectively.

[6] = biological target: T1, GPNMB (Homo sapiens, UniProt Q14956); assay: ELISA of hybridoma supernatants for binding to GPNMB
T1 construct: made in house; host or cells: HEK 293
T1 sequence (Q14956 23-492): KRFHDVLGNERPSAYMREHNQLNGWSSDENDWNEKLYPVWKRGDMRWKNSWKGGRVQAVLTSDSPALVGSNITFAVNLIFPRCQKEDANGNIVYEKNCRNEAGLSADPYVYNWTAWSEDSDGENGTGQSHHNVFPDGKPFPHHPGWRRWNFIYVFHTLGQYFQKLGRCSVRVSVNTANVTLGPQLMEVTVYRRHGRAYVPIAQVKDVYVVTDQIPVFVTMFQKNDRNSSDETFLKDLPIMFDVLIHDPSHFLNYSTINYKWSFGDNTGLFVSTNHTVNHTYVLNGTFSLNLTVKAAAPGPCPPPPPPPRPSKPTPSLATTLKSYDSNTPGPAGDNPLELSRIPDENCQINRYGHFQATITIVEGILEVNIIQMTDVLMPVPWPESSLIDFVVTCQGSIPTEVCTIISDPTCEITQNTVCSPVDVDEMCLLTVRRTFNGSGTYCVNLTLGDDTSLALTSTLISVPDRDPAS
Experimental: After 14 days of culture, hybridoma supernatants were screened for GPNMB specific monoclonal antibodies. In the Primary screen, the ELISA plates (Fisher, Cat. No. 12-565-136) were coated with 50 μL/well of GPNMB (1 μg/mL) in Coating Buffer (0.1 M Carbonate Buffer, pH 9.6, NaHCO3 8.4 g/L), then incubated at 4° C. overnight. After incubation, the plates were washed with Washing Buffer (0.05% Tween 20 in PBS) three times. 200 μL/well Blocking Buffer (0.5% BSA, 0.1% Tween 20, 0.01% Thimerosal in 1×PBS) were added and the plates were incubated at room temperature for 1 h. After incubation, the plates were washed with Washing Buffer three times. Aliquots (50 μL/well) of hybridoma supernatants and positive and negative controls were added, and the plates were incubated at room temperature for 2 h. The positive control used throughout was serum from the relevant GPNMB immunized XenoMouse® mouse and the negative control was serum from the KLH-immunized relevant strain of XenoMouse® mouse. After incubation, the plates were washed three times with Washing Buffer. 100 μL/well of detection antibody goat anti-huIgGfc-HRP (Caltag, Cat. No. H10507, using concentration was 1:2000 dilution) was added and the plates were incubated at room temperature for 1 hour. After incubation, the plates were washed three times with Washing Buffer. 100 μl/well of TMB (BioFX Lab. Cat. No. TMSK-0100-01) was added, and the plates were allowed to develop for about 10 minutes (until negative control wells barely started to show color). 50 μl/well stop solution (TMB Stop Solution (BioFX Lab. Cat. No. STPR-0100-01) was then added and the plates were read on an ELISA plate reader at a wavelength of 450 nm.
Hybridoma supernatants were screened for binding to GPNMB by ELISA as described above in Example 2.

B1: Mab1.15.1 (protein, listed as Homo sapiens)
chain: QVQLQESGPGLVKPSQTLSLTCTVSGGSISSFNYYWSWIRHHPGKGLEWIGYIYYSGSTYSNPSLKSRVTISVDTSKNQFSLTLSSVTAADTAVYYCARGYNWNYFDYWGQGTLVTVSSA
- growth of CG56972-expressing cancer cells ([1]; combined with saporin-conjugated secondary antibody): could specifically inhibit the growth
- effect on CG56972 expressing cells / growth, naked antibody [1]: no effect
- effect on CG56972 expressing cells / growth, naked antibody ([1]; listed as CR011): did not inhibit the growth
- internalization [2]: internalized
- cell surface staining [3]: strong cell surface staining
- effect on growth of all antigen positive hematopoietic cell lines [4]: no effect on growth
- ADCC / cytolysis of SK-MEL-2 cells [5]: do not cause ADCC; also recorded: did not show any cytolysis
- Avg OD ([6]; 12.3 ng/mL): 0.168
- Avg OD ([6]; 37 ng/mL): 0.381
- Avg OD ([6]; 111 ng/mL): 0.701
- Avg OD ([6]; 333 ng/mL): 0.902
- Avg OD ([6]; 1 μg/mL): 1.051
- Avg OD ([6]; 3 μg/mL): 1.159
